Reference: patent US20250250357A1 (NANJING ZAIMING PHARMACEUTICAL, published 2025)
Positions count from the first letter of the chain named.

B1: S009-F7.2.3 chimeric antibody (antibody, human IgG1, kappa, V domains shown)
VH: ELQLVESGGDLVKPGGSLKLSCAASGFTFSSNGMSWLRQTPDKRLEWVATISSGGRYTYYPDSVKGRFTISRDNAKNTLYLQMSSLKSEDTAMYYCARRGIYDYFDCWGQGTTLTVSS
VL: DIQMTQSPASLSISVGETVTITCRASENIHSSLAWYQQKQGKSPQLLVYAATNLADGVPSRFSGSGSGSQYSLKINSLQSEDFGTYYCQHFWGTPWTFGGGTKLDIKR
notes: Human-murine chimeric antibody, human IgG1/kappa constant regions
B2: S009-F7.6.17 chimeric antibody (antibody, human IgG1, kappa, V domains shown)
VH: QVQLQQSGAELARPGASVKMSCKASGYTFTTYTMHWVKQRPGQGLEWIGYISPTGDFTKYNQKFKDKATLTTDKSSNTAFMQLSSLTSEDSAVYYCARWNGTVWFAYWGQGTLVTVSA
VL: DIVMTQSQKFMSTSVGDRVTVTCKASQALGTNVAWYQQKPGQSPKVLIYSASYRYSGVPYRFAGGGSGTDFTLTITNVQSEDLAEYFCQQYNNYPLTFGAGTKLELKR
notes: as for B1
B3: S009-F7.11.11 chimeric antibody (antibody, human IgG1, kappa, V domains shown)
VH: EVQLQQSGPELVKPGASVKIPCKASGYTITDYNMDWVKQSRGKSLEWIGDVFPYNGDSIYNQKFEGRATLTVDKYSSTAYMELRGLTSEDTAVYFCARRKTGTGYFDVWGTGTTVTVSS
VL: QLVLTQSPAIMSASPGEKVTLTCSASSSVSSTYLSWYLQKPGSSPKLWIYSTSNLASGVPARFSGSGSGTSYSLTISSMEAEDAASYFCHQWSSYPYTFGGGTKLEIKR
notes: as for B1
B4: S009-F7.12.13 chimeric antibody (antibody, human IgG1, kappa, V domains shown)
VH: EVQLQQSGPELVKPGASVKIPCKASGYTFTDYNMDWVKQSHGKGLEWIGDINPNTDDTIYNQKFNGKATLTVDKSSSTAYMELRSLTSEDTAVYYCSRRLIGTGYFDVWGTGTTVTVSS
VL: B3 VL with L2I, S30I, S35C, L38R, K46E, S94N, E106G, I107M
notes: as for B1
B5: S009-F7.18.10 chimeric antibody (antibody, human IgG1, kappa, V domains shown)
VH: QVQLQQSGAELVRPGTSVKVSCKASGYAFTNYLIEWVKQRPGQGLEWIGVINPGSGGTKYNEKFKGKATLTADKSSSTAYMQLSSLTSEDSAVYFCASDYDYDPFAYWGQGTLVTVSA
VL: DIVMTQSHKFMSTSVGDRVSITCKASQDVSTAVAWYQRKPGQSPKLLIYWASTRHTGVPDRFTGSGSGTDYTLTISYMQAEDLALYYCQQHYSTPYTFGGGTKLEIKR
notes: as for B1
B6: F3.80.22-H4 (scFv, not shown: small tags and cut ends)
scFv: DIVMTQTPLSLPVTPGEPASISCRSSQSLEHNNGNTYLHWFLQKPGQSPQLLIYKVSNRFSGVPDRFSGSGSGTDFTLKISRVEAEDVGVYYCSQSTHVPFTFGQGTKLEIKGGGGSGGGGSGGGGSEVQLVQSGAEVKKPGATVKISCKASGYTFTDYEIHWVQQAPGKGLEWMGAFDPEIGGSAYNQKFKDRVTITADKSSSTAYMELSSLRSEDTAVYYCTDYYGSSSGYFDVWGTGTTVTVSS
notes: also called S009-F3.80.22 humanized antibody VL1 + VH4
B7: F3.80.22-H6 (scFv, not shown: small tags and cut ends)
scFv: B6 scFv with N33D, S203T, T239Q
notes: also called S009-F3.80.22 humanized antibody VL1a + VH2
B8: F3.80.22-H7 (scFv, not shown: small tags and cut ends)
scFv: B6 scFv with N33D, S203T
notes: also called S009-F3.80.22 humanized antibody VL1a + VH3
B9: F3.80.22-H8 (scFv, not shown: small tags and cut ends)
scFv: B6 scFv with N33D
notes: also called S009-F3.80.22 humanized antibody VL1a + VH4
B10: F3.80.22-H5 (scFv, not shown: small tags and cut ends)
scFv: B6 scFv with N33D, A151V, S203T, S204D, T239Q
notes: also called S009-F3.80.22 humanized antibody VL1a + VH1
B11: F3.80.22-H10 (scFv, not shown: small tags and cut ends)
scFv: B6 scFv with Q43H, S203T, T239Q
notes: also called S009-F3.80.22 humanized antibody VL2 + VH2
B12: F3.80.22-H17 (scFv, not shown: small tags and cut ends)
scFv: EVQLVQSGAEVKKPGATVKISCKVSGYTFTDYEIHWVQQAPGKGLEWMGAFDPEIGGSAYNQKFKDRVTITADKSTDTAYMELSSLRSEDTAVYYCTDYYGSSSGYFDVWGQGTTVTVSSGGGGSGGGGSGGGGSDIVMTQTPLSLPVTPGEPASISCRSSQSLEHNDGNTYLHWFLQKPGQSPQLLIYKVSNRFSGVPDRFSGSGSGTDFTLKISRVEAEDVGVYYCSQSTHVPFTFGQGTKLEIK
notes: also called S009-F3.80.22 humanized antibody VH1 + VL1a

Experiments:
[1] = molecular target: T1, human MSLN-R1-his protein (human, UniProt Q13421 296-390); assay: ELISA, coated antigen, antibody 2 nM
T1 construct: Made in HEK293E cells, purified on nickel column; also called hMSLN-R1-his; human MSLN-R1 protein; not shown: His tag
T1 chain: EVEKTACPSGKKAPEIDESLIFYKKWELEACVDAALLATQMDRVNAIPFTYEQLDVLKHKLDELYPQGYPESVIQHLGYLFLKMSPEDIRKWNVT

[2] = molecular target: T1, human MSLN-R1-his protein; assay: ELISA, coated antigen, no antibody (blank)
[3] = molecular target: T2, human MSLN-FL-his protein (human, UniProt Q13421 296-580); assay: ELISA, coated antigen, antibody 0.2 nM
T2 construct: Made in HEK293E cells, purified on nickel column; also called hMSLN-FL-his; human MSLN full-length protein; not shown: His tag
Target sequence in this assay (Q13421 other isoform, or with tags, fused parts or gaps): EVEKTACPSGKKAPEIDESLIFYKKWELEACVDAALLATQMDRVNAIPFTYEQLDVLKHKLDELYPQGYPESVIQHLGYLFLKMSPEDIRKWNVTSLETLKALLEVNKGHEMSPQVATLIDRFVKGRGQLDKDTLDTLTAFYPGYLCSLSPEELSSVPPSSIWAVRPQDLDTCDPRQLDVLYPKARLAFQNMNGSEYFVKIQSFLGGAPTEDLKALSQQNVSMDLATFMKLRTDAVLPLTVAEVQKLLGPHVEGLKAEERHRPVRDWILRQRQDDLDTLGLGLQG

[4] = molecular target: T2, human MSLN-FL-his protein; assay: ELISA, coated antigen, antibody 0.02 nM
[5] = molecular target: T2, human MSLN-FL-his protein; assay: ELISA, coated antigen, antibody 2 nM
[6] = molecular target: T2, human MSLN-FL-his protein; assay: ELISA, coated antigen, antibody 20 nM
[7] = molecular target: T2, human MSLN-FL-his protein; assay: ELISA, coated antigen, antibody 200 nM
[8] = molecular target: T2, human MSLN-FL-his protein; assay: ELISA, coated antigen, antibody 0.0002 nM
[9] = molecular target: T1, human MSLN-R1-his protein; assay: ELISA, coated antigen, antibody 200 nM
[10] = molecular target: T1, human MSLN-R1-his protein; assay: ELISA, coated antigen, antibody 0.02 nM
[11] = molecular target: T1, human MSLN-R1-his protein; assay: ELISA, coated antigen, antibody 20 nM
[12] = molecular target: T2, human MSLN-FL-his protein; assay: ELISA, coated antigen, antibody 0.002 nM
[13] = molecular target: T1, human MSLN-R1-his protein; assay: ELISA, coated antigen, antibody 0.002 nM
[14] = molecular target: T1, human MSLN-R1-his protein; assay: ELISA, coated antigen, antibody 0.2 nM
[15] = molecular target: T2, human MSLN-FL-his protein; assay: ELISA, coated antigen, no antibody (blank)
[16] = molecular target: T1, human MSLN-R1-his protein; assay: ELISA, coated antigen, antibody 0.0002 nM
[17] = molecular target: T3, human MSLN-R3 on HEK293T-hMSLN-R3 recombinant cells (human, UniProt Q13421 487-606); assay: FACS, HEK293T-hMSLN-R3 cells
T3 construct: the C-terminal limit is uncertain; also called human MSLN-R3 membrane protein
T3 sequence (Q13421 495-614): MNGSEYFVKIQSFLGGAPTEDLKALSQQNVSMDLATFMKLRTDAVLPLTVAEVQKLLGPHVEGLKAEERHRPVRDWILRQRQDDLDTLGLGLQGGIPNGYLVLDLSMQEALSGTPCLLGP

[18] = molecular target: T4, monkey MSLN on HEK293T-monkey MSLN recombinant cells (monkey); assay: FACS, HEK293T-monkey MSLN cells
T4 construct: Full-length precursor as transfected; processing on the cell is not described; also called HEK293-monkey MSLN
T4 chain: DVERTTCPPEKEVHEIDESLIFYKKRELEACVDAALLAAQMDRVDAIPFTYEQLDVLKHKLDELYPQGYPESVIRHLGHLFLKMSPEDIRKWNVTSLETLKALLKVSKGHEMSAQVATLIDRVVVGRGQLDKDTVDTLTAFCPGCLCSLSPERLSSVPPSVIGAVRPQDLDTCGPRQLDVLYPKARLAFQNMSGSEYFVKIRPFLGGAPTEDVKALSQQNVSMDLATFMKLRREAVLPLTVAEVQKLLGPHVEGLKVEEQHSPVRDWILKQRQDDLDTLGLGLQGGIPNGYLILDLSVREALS

[19] = molecular target: T5, human MSLN-hFc recombinant protein (human, UniProt Q13421 296-580); assay: SPR (Biacore 8K), MSLN-hFc captured, antibody injected
T5 construct: Captured by an anti-human IgG antibody on the chip; also called human MSLN protein; Acro MSN-H5253
T5 sequence (Q13421 other isoform, or with tags, fused parts or gaps): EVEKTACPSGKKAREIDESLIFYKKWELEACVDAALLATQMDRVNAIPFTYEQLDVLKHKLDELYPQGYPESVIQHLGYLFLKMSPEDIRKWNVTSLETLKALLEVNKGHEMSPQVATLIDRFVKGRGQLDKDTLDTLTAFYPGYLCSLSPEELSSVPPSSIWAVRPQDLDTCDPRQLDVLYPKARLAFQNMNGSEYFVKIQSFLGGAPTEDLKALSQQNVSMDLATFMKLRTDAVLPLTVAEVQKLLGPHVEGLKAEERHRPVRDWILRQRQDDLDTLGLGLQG

Binder | OD450 [1] | OD450 [2] | OD450 [3] | OD450 [4] | OD450 [5] | OD450 [6] | OD450 [7] | OD450 [8] | OD450 [9] | OD450 [10] | OD450 [11] | OD450 [12] | OD450 [13] | OD450 [14] | OD450 [15] | OD450 [16] | Maximum_MFI [17] | Maximum_MFI [18] | binding result [18] | EC50 [17] | other results
B1 | 0.08 | 0.07 | 2.3 | 1.28 | 2.5 | 2.5 | 2.91 | 0.15 | 0.1 | 0.06 | 0.08 | 0.41 | 0.06 | 0.06 | 0.06 | 0.06 |  |  |  |  | 
B2 | 0.05 | 0.07 | 2.4 | 1.78 | 2.34 | 2.49 | 2.75 | 0.22 | 0.08 | 0.05 | 0.06 | 0.84 | 0.05 | 0.05 | 0.08 | 0.05 |  |  |  |  | 
B3 | 0.05 | 0.07 | 1.54 | 0.41 | 2.13 | 2.35 | 2.62 | 0.08 | 0.06 | 0.05 | 0.06 | 0.16 | 0.05 | 0.05 | 0.08 | 0.05 |  |  |  |  | 
B4 | 0.05 | 0.06 | 2.14 | 1.44 | 2.21 | 2.19 | 2.65 | 0.15 | 0.06 | 0.05 | 0.06 | 0.6 | 0.05 | 0.05 | 0.06 | 0.05 |  |  |  |  | 
B5 | 2.45 | 0.08 | 2.33 | 1.91 | 2.28 | 2.29 | 2.4 | 0.31 | 2.77 | 2.05 | 2.45 | 0.97 | 1.17 | 2.46 | 0.07 | 0.38 |  |  |  |  | 
B6 |  |  |  |  |  |  |  |  |  |  |  |  |  |  |  |  | 1410 MFI | 357 MFI | no binding |  | 
B7 |  |  |  |  |  |  |  |  |  |  |  |  |  |  |  |  | 1440 MFI | 338 MFI | no binding | 8.39 nM | 
B8 |  |  |  |  |  |  |  |  |  |  |  |  |  |  |  |  | 1530 MFI | 329 MFI | no binding | 3.91 nM | 
B9 |  |  |  |  |  |  |  |  |  |  |  |  |  |  |  |  | 1400 MFI | 317 MFI | no binding | 10.2 nM | 
B10 |  |  |  |  |  |  |  |  |  |  |  |  |  |  |  |  | 1370 MFI | 302 MFI | no binding | 5.29 nM | Kd [19]: 159 nM; koff [19]: 0.000565 s⁻¹; kon [19]: 3560 M⁻¹ s⁻¹
B11 |  |  |  |  |  |  |  |  |  |  |  |  |  |  |  |  | 1800 MFI | 381 MFI | no binding | 1.99 nM | Kd [19]: 20.9 nM; koff [19]: 0.000177 s⁻¹; kon [19]: 8470 M⁻¹ s⁻¹
B12 |  |  |  |  |  |  |  |  |  |  |  |  |  |  |  |  | 1790 MFI | 356 MFI | no binding | 4.41 nM | 
